Data from paper PMC5772059.

Target: N2Bus phosphorylated by PKA catalytic subunit or cGMP-activated PKG
Experiment: pull-down; GST pull-down: purified protein incubated with a GST-fusion protein immobilised on glutathione sepharose beads, 4 °C, 1.5 h; washes in high and low salt buffer; SDS-PAGE and western blot

B1: recombinant human full-length PP5 (enzyme)
chain: MAMAEGERTECAEPPRDEPPADGALKRAEELKTQANDYFKAKDYENAIKFYSQAIELNPSNAIYYGNRSLAYLRTECYGYALGDATRAIELDKKYIKGYYRRAASNMALGKFRAALRDYETVVKVKPHDKDAKMKYQECNKIVKQKAFERAIAGDEHKRSVVDSLDIESMTIEDEYSGPKLEDGKVTISFMKELMQWYKDQKKLHRKCAYQILVQVKEVLSKLSTLVETTLKETEKITVCGDTHGQFYDLLNIFELNGLPSETNPYIFNGDFVDRGSFSVEVILTLFGFKLLYPDHFHLLRGNHETDNMNQIYGFEGEVKAKYTAQMYELFSEVFEWLPLAQCINGKVLIMHGGLFSEDGVTLDDIRKIERNRQPPDSGPMCDLLWSDPQPQNGRSISKRGVSCQFGPDVTKAFLEENNLDYIIRSHEVKAEGYEVAHGGRCVTVFSAPNYCDQMGNKASYIHLQGSDLRPQFHQFTAVPHPNVKPMAYANTLLQLGMM
  fold binding against unphosphorylated N2Bus: 2 to 3 times
